Experimental data reported in patent US20250304927A1, “PRO-PEPTIDE VARIANTS FOR MODULATING ACTIVITY OF TRANSGLUTAMINASES” (CURIE CO. INC., priority 2022, published 2025).

T1: thermostable variant of Streptomyces mobaraensis transglutaminase (Streptomyces mobaraensis, UniProt P81453 79-407)
T1 sequence: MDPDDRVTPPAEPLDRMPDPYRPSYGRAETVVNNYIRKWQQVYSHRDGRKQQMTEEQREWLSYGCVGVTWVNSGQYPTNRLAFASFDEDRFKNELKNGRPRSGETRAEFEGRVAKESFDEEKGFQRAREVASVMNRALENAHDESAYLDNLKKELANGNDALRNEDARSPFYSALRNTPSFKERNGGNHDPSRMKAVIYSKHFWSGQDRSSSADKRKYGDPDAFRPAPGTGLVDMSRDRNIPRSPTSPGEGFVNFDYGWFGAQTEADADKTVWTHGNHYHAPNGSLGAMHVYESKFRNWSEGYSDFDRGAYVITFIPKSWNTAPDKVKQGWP


Legend:
[1] = target: T1, thermostable variant of Streptomyces …; test: cell-based or functional assay
[2] = target: T1, thermostable variant of Streptomyces …; test: cell-based or functional assay; remark: listed apart in the source

Improvement in binding affinity of inhibitory peptide relative to WT [1] [fold]	Improvement in pH responsiveness of inhibitory peptide relative to WT [2] [fold]	Binder
> 1.2	> 1.2	MDNGAGCETKSYAETYRLTADDVANINALNESAPAASSAGPSFRAP [pro-peptide variant E7C]
> 1.2	> 1.2	MDNGAGEERKSYAETYRLTADDVANINALNESAPAASSAGPSFRAP [pro-peptide variant T9R]
> 1.2	> 5	MDNGAGVETKSYAETYRLTADDVANINALNESAPAASSAGPSFRAP [pro-peptide variant E7V]
> 1.2	> 1.2	MDNGAGEEKKSYAETYRLTADDVANINALNESAPAASSAGPSFRAP [pro-peptide variant T9K]
> 1.2	> 1.2	MDNGAGEETKSYAETYRLTADDVANINALNESAPAASFAGPSFRAP [pro-peptide variant S38F]
> 1.2	> 1.2	MDNGAGEETKSYAQTYRLTADDVANINALNESAPAASSAGPSFRAP [pro-peptide variant E14Q]
> 1.2	> 5	MDNGAGEETKSYAETYRLTADDVVNINALNESAPAASSAGPSFRAP [pro-peptide variant A24V]
> 1.2	> 1.2	MDNGAGEETKSYAETYRLTASDVANINALNESAPAASSAGPSFRAP [pro-peptide variant D21S]
> 1.2	> 1.2	MDNGAGEETKSYAEVYRLTADDVANINALNESAPAASSAGPSFRAP [pro-peptide variant T15V]
> 1.2	> 1.2	MDNGAGEETKSYAETYRLTADDVANINALNESAPAASSAGPSFRAA [pro-peptide variant P46A]
> 1.2	> 1.2	MDNGAGEEGKSYAETYRLTADDVANINALNESAPAASSAGPSFRAP [pro-peptide variant T9G]
> 1.2	> 1.2	MDNGAGEEYKSYAETYRLTADDVANINALNESAPAASSAGPSFRAP [pro-peptide variant T9Y]
> 1.2	> 1.2	MDNGAGEEHKSYAETYRLTADDVANINALNESAPAASSAGPSFRAP [pro-peptide variant T9H]
> 1.2	> 1.2	MDNGAGEETKSYAETYRLTAFDVANINALNESAPAASSAGPSFRAP [pro-peptide variant D21F]
> 1.2	> 1.2	MDNGAGECTKSYAETYRLTADDVANINALNESAPAASSAGPSFRAP [pro-peptide variant E8C]
> 1.2	> 1.2	MDNGAGEETKSYAEDYRLTADDVANINALNESAPAASSAGPSFRAP [pro-peptide variant T15D]
> 1.2	> 1.2	MDNGAGEETKSYAETYRLTADAVANINALNESAPAASSAGPSFRAP [pro-peptide variant D22A]
> 1.2	> 1.2	MDNGAGEETKSYAETYRLTAVDVANINALNESAPAASSAGPSFRAP [pro-peptide variant D21V]

Improvement in binding affinity of inhibitory peptide relative to WT [1] [fold]	Improvement in pH responsiveness of inhibitory peptide relative to WT [2] [fold]	Binder
> 1.2	> 1.2	MDNGAGEETKSYAETYRITADDVANINALNESAPAASSAGPSFRAP [pro-peptide variant L18I]
> 1.2	> 1.2	MDNGAGTETKSYAETYRLTADDVANINALNESAPAASSAGPSFRAP [pro-peptide variant E7T]
> 1.2	> 1.2	MDNGAGEETKSYAETYRLTADDVANINALNESAPAASHAGPSFRAP [pro-peptide variant S38H]
> 1.2	> 1.2	MDNGAGETTKSYAETYRLTADDVANINALNESAPAASSAGPSFRAP [pro-peptide variant E8T]
> 1.2	> 1.2	MDNGAGELTKSYAETYRLTADDVANINALNESAPAASSAGPSFRAP [pro-peptide variant E8L]
> 1.2	> 1.2	MDNGAGEEWKSYAETYRLTADDVANINALNESAPAASSAGPSFRAP [pro-peptide variant T9W]
> 1.2	> 1.2	MDNGAGENTKSYAETYRLTADDVANINALNESAPAASSAGPSFRAP [pro-peptide variant E8N]
> 1.2	> 5	MDNGAGEETKSYAETYRLTAMDVANINALNESAPAASSAGPSFRAP [pro-peptide variant D21M]
> 1.2	> 1.2	MDNGAGLETKSYAETYRLTADDVANINALNESAPAASSAGPSFRAP [pro-peptide variant E7L]
> 1.2	> 1.2	MDNGAGEELKSYAETYRLTADDVANINALNESAPAASSAGPSFRAP [pro-peptide variant T9L]
> 1.2	> 1.2	MDNGAGEEVKSYAETYRLTADDVANINALNESAPAASSAGPSFRAP [pro-peptide variant T9V]
> 1.2	> 5	MDNGAGEETKSYASTYRLTADDVANINALNESAPAASSAGPSFRAP [pro-peptide variant E14S]
> 1.2	> 5	MDNGAGEQTKSYAETYRLTADDVANINALNESAPAASSAGPSFRAP [pro-peptide variant E8Q]
> 1.2	> 1.2	MDNGAGEEAKSYAETYRLTADDVANINALNESAPAASSAGPSFRAP [pro-peptide variant T9A]
> 1.2	> 1.2	MDNGAGERTKSYAETYRLTADDVANINALNESAPAASSAGPSFRAP [pro-peptide variant E8R]
> 1.2	> 1.2	MDNGAGEETKSYAETYRLTADDVANINALNESAPAASVAGPSFRAP [pro-peptide variant S38V]
> 1.2	> 1.2	MDNGAGEETKSYAETYRLTADDVANINALNESAPAASTAGPSFRAP [pro-peptide variant S38T]
> 1.2	> 1.2	MDNGAGEETKSYAETYRLTACDVANINALNESAPAASSAGPSFRAP [pro-peptide variant D21C]
